{"source": "patent US20150344570A1", "about": "(published 2015)", "binders": {"B1": {"name": "GpH7-A5/GpH7-B3/GpL16-k0 (antibody, human IgG1, kappa)", "heavy 1": "not shown", "heavy 2": "not shown", "light": "DIVMTQSPLSLPVTPGEPASISCQASESLVHSNRNTYLHWYLQKPGQSPQLLIYKVSNRFSGVPDRFSGSGSGTDFTLKISRVEAEDVGVYYCSQNTHVPPTFGQGTKVEIERTVAAPSVFIFPPSDEQLKSGTASVVCLLNNFYPREAKVQWKVDNALQSGNSQESVTEQDSKDSTYSLSSTLTLSKADYEKHKVYACEVTHQGLSSPVTKSFNRGEC", "notes": "also called HeCon Ab; control heterodimerized antibody"}, "B2": {"name": "GpH7-TA7/GpH7-B3/GpL16-k0 (antibody, human IgG1, kappa)", "heavy 1": "QVQLVQSGAEVKKPGASVTVSCKASGYTFTDYEMHWIRQPPGEGLEWIGAIDPKTGDTAYSESFQDRVTLTADKSTSTAYMELSSLTSEDTAVYYCTRFYSYTYWGQGTLVTVSSASTKGPSVFPLAPSSKSTSGGTAALGCLVKDYFPEPVTVSWNSGALTSGVHTFPAVLQSSGLYSLSSVVTVPSSSLGTQTYICNVNHKPSNTKVDKKVEPKSCDKTHTCPPCPAPEYLWGPSVFLFPPKPKDTLMISRTPEVTCVVVDVSHEDPEVKFNWYVDGVEVHNAKTKPREEQYNATYRVVSVLTVLHQDWLNGKEYKCKVSNKALPAPIEKTISKAKGQPREPQVYTLPPSRKELTKNQVSLTCLVKGFYPSDIAVEWESNGQPENNYKTTPPVLDSDGSFFLYSKLTVDKSRWQQGNVFSCSVMHEALHNRYTQKSLSLSP", "heavy 2": "not shown", "light": "B1 light", "notes": "Anti-glypican-3 IgG1 heterodimer; L234Y/G236W/S298A in H1 only"}, "B3": {"name": "GpH7-TA7/GpH7-TA45/GpL16-k0 (antibody, human IgG1, kappa)", "heavy 1": "B2 heavy 1", "heavy 2": "B2 heavy 1 with K354D, R433H, K437E", "light": "B1 light", "notes": "Anti-glypican-3 IgG1; The two chains differ only in D356K/H435R and K439E"}, "B4": {"name": "GpH7-A5/GpH7-TA45/GpL16-k0 (antibody, human IgG1, kappa)", "heavy 1": "not shown", "heavy 2": "B2 heavy 1 with K354D, R433H, K437E", "light": "B1 light", "notes": "Anti-glypican-3 IgG1 heterodimer; L234Y/G236W/S298A in H2 only"}, "B5": {"name": "GpH7-TA8/GpH7-B3/GpL16-k0 (antibody, human IgG1, kappa)", "heavy 1": "B2 heavy 1 with P327R", "heavy 2": "not shown", "light": "B1 light", "notes": "Anti-glypican-3 IgG1 heterodimer; L234Y/G236W/S298A/P329R all in H1"}, "B6": {"name": "GpH7-TA7/GpH7-B12/GpL16-k0 (antibody, human IgG1, kappa)", "heavy 1": "B2 heavy 1", "heavy 2": "not shown", "light": "B1 light", "notes": "Anti-glypican-3 IgG1 heterodimer; L234Y/G236W/S298A in H1, P329R in H2"}, "B7": {"name": "IL6R-BP256/IL6R-L (antibody, human IgG1, kappa)", "heavy": "QVQLQESGPGLVKPSETLSLTCAVSGHSISHDHAWSWVRQPPGEGLEWIGFISYSGITNYNPSLQGRVTISRDNSKNTLYLQMNSLRAEDTAVYYCARSLARTTAMDYWGEGTLVTVSSASTKGPSVFPLAPSSKSTSGGTAALGCLVKDYFPEPVTVSWNSGALTSGVHTFPAVLQSSGLYSLSSVVTVPSSSLGTQTYICNVNHKPSNTKVDKKVEPKSCDKTHTCPPCPAPDLLGDDDVFLFPPKPKDTLMISRTPEVTCVVVDVSDEDGEVKFNWYVDGVEVHNAKTKPREEQYNSTYRVVSVLTVLHQDWLNGKEYKCKVSNKALPRPIEKTISKAKGQPREPQVYTLPPSRDELTKNQVSLTCLVKGFYPSDIAVEWESNGQPENNYKTTPPVLDSDGSFFLYSKLTVDKSRWQQGNVFSCSVMHEALHNHYTQESLSLSP", "light": "not shown", "notes": "Homodimerized antibody, S239D in both H chains"}, "B8": {"name": "IL6R-BP257/IL6R-L (antibody, human IgG1, kappa)", "heavy": "B7 heavy with D241E", "light": "not shown", "notes": "Homodimerized antibody, S239E in both H chains"}, "B9": {"name": "GpH7-A5/GpH7-B3/GpL16-k0 (antibody, human IgG1, kappa)", "heavy 1": "not shown", "heavy 2": "not shown", "light": "B1 light", "notes": "as for B1"}, "B10": {"name": "GpH7-A44/GpH7-B80/GpL16-k0 (antibody, human IgG1, kappa)", "heavy 1": "B2 heavy 1 with Y232L, W234G, A296S, I330E", "heavy 2": "not shown", "light": "B1 light"}, "B11": {"name": "GpH7-A44/GpH7-B3/GpL16-k0 (antibody, human IgG1, kappa)", "heavy 1": "B2 heavy 1 with Y232L, W234G, A296S, I330E", "heavy 2": "not shown", "light": "B1 light", "notes": "Heterodimerized antibody with I332E in one H chain only"}, "B12": {"name": "GpH7-A5/GpH7-B80/GpL16-k0 (antibody, human IgG1, kappa)", "heavy 1": "not shown", "heavy 2": "not shown", "light": "B1 light", "notes": "as for B11"}}, "note": "Where a chain is given by its changes, count along the chain named. Numbers in names are those of the source.", "data": [{"molecular_target": "T1, FcγRIIIa (human, UniProt P08637 17-208)", "T1 construct": "extracellular domain; also called FcgRIIIa; CD16A; not shown: His tag attached to the C terminus", "T1 sequence (P08637 17-208)": "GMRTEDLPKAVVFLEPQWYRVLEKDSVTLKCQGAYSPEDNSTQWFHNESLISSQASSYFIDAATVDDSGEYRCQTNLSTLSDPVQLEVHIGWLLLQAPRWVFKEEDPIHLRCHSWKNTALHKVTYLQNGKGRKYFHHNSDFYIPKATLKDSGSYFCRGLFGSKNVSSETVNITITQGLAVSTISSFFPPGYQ", "experiment": "SPR (Biacore), antibody captured on antigen-peptide chip, FcγR as analyte; relative binding amount", "protocol": "Specifically, GpH7-TA7 and GpH7-TA45 (SEQ ID NO: 32) resulting from the introduction of L234Y, G236W, and S298A into GpH7-A5 and GpH7-B3, respectively, were prepared according to the method described in Reference Example 1. […] These antibodies were compared for the FcγRIIIa binding according to the method described in Reference Example 2 (Table 10).\n(§1) Analysis of interaction between objective antibody and the FcγR was carried out using Biacore T100 (GE Healthcare). HBS-EP+ (GE Healthcare) was used as the running buffer, and the measurement temperature was set to 25° C. Chips produced by immobilizing the antigen peptide by the amine coupling method to a Series S Sencor Chip CM5 (GE Healthcare), or alternatively, chips produced by allowing preliminarily biotinylated antigen peptides to interact with and immobilize onto a Series S Sensor Chip SA (certified) (GE Healthcare) were used. Antibodies of interest were captured onto an antigen peptide-immobilized chip, and allowed to interact to each FcγR diluted with running buffer. To regenerate and repeatedly use the chip, the antibodies captured on the chip were washed off by reacting 10 mM glycine-HCl, pH 1.5.", "values": [{"binder": "B1", "FcγR BINDING ACTIVITY (relative FcγRIIIa binding)": "100 relative, GpH7-A5/GpH7-B3/GpL16-k0 = 100"}, {"binder": "B2", "FcγR BINDING ACTIVITY (relative FcγRIIIa binding)": "210 relative, GpH7-A5/GpH7-B3/GpL16-k0 = 100"}, {"binder": "B3", "FcγR BINDING ACTIVITY (relative FcγRIIIa binding)": "48 relative, GpH7-A5/GpH7-B3/GpL16-k0 = 100"}, {"binder": "B4", "FcγR BINDING ACTIVITY (relative FcγRIIIa binding)": "225 relative, GpH7-A5/GpH7-B3/GpL16-k0 = 100"}]}, {"molecular_target": "T1, FcγRIIIa", "experiment": "ratio of SPR KDs: KD of GpH7-A5/GpH7-B3/GpL16-k0 divided by KD of this antibody", "protocol": "(§2) The prepared antibodies were compared for the FcγRIIIa-binding activity using, as an indicator, KD for FcγRIIIa that was determined according to the method described in Reference Example 2.\nas §1\n(§3) Specifically, to calculate association rate constant ka (L/mol/s) and dissociation rate constant kd (1/s), sensorgrams obtained by measurement were processed for global fitting by Biacore Evaluation Software using 1:1 Langmuir binding model and dissociation constant KD (mol/1) was calculated from the resulting values.", "units": {"KD ratio 2": "fold"}, "values": [{"binder": "B1", "KD ratio 2": 1}, {"binder": "B2", "KD ratio 2": 5.1}, {"binder": "B3", "KD ratio 2": 0.49}]}, {"molecular_target": "T1, FcγRIIIa", "experiment": "SPR (Biacore), antibody captured on antigen-peptide chip, FcγR as analyte; relative binding amount", "remark": "another data set of the same source", "protocol": "GpH7-TA8 (SEQ ID NO: 33) and GpH7-B12 (SEQ ID NO: 12) resulting from the introduction of P329R into GpH7-TA7 and GpH7-B3, respectively, were prepared according to the method described in Reference Example 1.\nas §1", "values": [{"binder": "B1", "FcγRIIIa BINDING ACTIVITY (relative)": "100 relative, GpH7-A5/GpH7-B3/GpL16-k0 = 100"}, {"binder": "B5", "FcγRIIIa BINDING ACTIVITY (relative)": "150 relative, GpH7-A5/GpH7-B3/GpL16-k0 = 100"}, {"binder": "B2", "FcγRIIIa BINDING ACTIVITY (relative)": "210 relative, GpH7-A5/GpH7-B3/GpL16-k0 = 100"}, {"binder": "B6", "FcγRIIIa BINDING ACTIVITY (relative)": "11 relative, GpH7-A5/GpH7-B3/GpL16-k0 = 100"}]}, {"molecular_target": "T2, FcgRIIb (human, UniProt P31994 43-217)", "T2 construct": "extracellular domain; Soluble extracellular domain with C-terminal His tag, expressed in FreeStyle293 cells; also called FcγRIIb; 2b; not shown: His tag at the C terminus", "T2 sequence (looked up)": "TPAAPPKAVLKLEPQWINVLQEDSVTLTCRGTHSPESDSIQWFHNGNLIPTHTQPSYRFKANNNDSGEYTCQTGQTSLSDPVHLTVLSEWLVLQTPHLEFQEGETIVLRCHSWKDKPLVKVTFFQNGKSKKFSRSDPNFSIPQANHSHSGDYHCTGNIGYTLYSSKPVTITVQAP", "experiment": "SPR (Biacore); KD of the variant for FcgRIIaR divided by its KD for FcgRIIb", "values": [{"binder": "B7", "KD(IIaR)/KD(IIb)": 8.4}, {"binder": "B8", "KD(IIaR)/KD(IIb)": 3}]}, {"molecular_target": "T3, FcgRIIaR (human, UniProt P12318 34-217)", "T3 construct": "extracellular domain; Soluble extracellular domain with C-terminal His tag, expressed in FreeStyle293 cells; also called FcγRIIa R; FcgRIIa type R; not shown: His tag at the C terminus", "T3 sequence (looked up)": "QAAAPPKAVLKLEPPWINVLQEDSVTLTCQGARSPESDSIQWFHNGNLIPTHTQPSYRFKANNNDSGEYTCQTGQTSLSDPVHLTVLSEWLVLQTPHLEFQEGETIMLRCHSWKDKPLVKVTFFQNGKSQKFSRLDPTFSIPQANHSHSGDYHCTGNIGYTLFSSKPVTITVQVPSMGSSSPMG", "experiment": "SPR (Biacore), antibody captured on chip, FcgR extracellular domain as analyte", "values": [{"binder": "B7", "Relative KD (KD of IL6R-B3/IL6R-L divided by KD of the variant)": 1.5}, {"binder": "B8", "Relative KD (KD of IL6R-B3/IL6R-L divided by KD of the variant)": 0.9}]}, {"molecular_target": "T2, FcgRIIb", "experiment": "SPR (Biacore), antibody captured on chip, FcgR extracellular domain as analyte", "values": [{"binder": "B7", "Relative KD (KD of IL6R-B3/IL6R-L divided by KD of the variant)": 35.7}, {"binder": "B8", "Relative KD (KD of IL6R-B3/IL6R-L divided by KD of the variant)": 7.2}]}, {"molecular_target": "T4, FcγRIIIa extracellular domain with C-terminal His tag (human, UniProt P08637 17-208)", "T4 construct": "extracellular domain; also called FcgRIIIa; 3a; not shown: His tag attached to the C terminus", "T4 sequence (P08637 17-208)": "as the sequence (P08637 17-208) above", "experiment": "SPR (Biacore), ratio of KD for FcγRIIIa against GpH7-A5/GpH7-B3/GpL16-k0", "excerpt": "Then, the present inventors introduced I332E into only one H chain, and assessed whether the Tm is elevated as compared to when I332E is introduced into both H chains. Expression vectors inserted with GpH7-A44 (SEQ ID NO: 49) and GpH7-B80 (SEQ ID NO: 50) resulting from the introduction of I332E into GpH7-A5 and GpH7-B3, respectively, were constructed. They were combined with GpH7-B3, GpH7-A5, and GpL16-k0 to express and prepare the following antibodies according to the method described in Reference Example 1: the heterodimerized antibodies GpH7-A5/GpH7-B80/GpL16-k0 and GpH7-A44/GpH7-B3/GpL16-k0 in which only one of the H chains was introduced with I332E, and the homodimerized antibody GpH7-A44/GpH7-B80/GpL16-k0 in which both of the H chains were introduced with I332E. […] Each antibody was assessed for the FcγRIIIa-binding activity according to the method described in Reference Example 2. In addition, the antibodies were compared for the Tm of CH2 domain by thermal shift assay according to the method described in Reference Example 5 (Tables 28 and 29).\nas §1\nThe FcγR-binding activity of each antibody was assessed primarily using as an indicator the FcγR-binding activity and dissociation constant for FcγR.", "values": [{"binder": "B9", "KD ratio": "1 fold (KD of GpH7-A5/GpH7-B3/GpL16-k0 divided by KD of the antibody)"}, {"binder": "B10", "KD ratio": "7.1 fold (KD of GpH7-A5/GpH7-B3/GpL16-k0 divided by KD of the antibody)"}, {"binder": "B11", "KD ratio": "4.4 fold (KD of GpH7-A5/GpH7-B3/GpL16-k0 divided by KD of the antibody)"}, {"binder": "B12", "KD ratio": "3.4 fold (KD of GpH7-A5/GpH7-B3/GpL16-k0 divided by KD of the antibody)"}]}, {"molecular_target": "T1, FcγRIIIa", "experiment": "ratio of SPR KDs: KD of GpH7-G1d/GpL16-k0 divided by KD of this antibody", "protocol": "as §2, §1, §3", "units": {"KD ratio 1": "fold"}, "values": [{"binder": "B1", "KD ratio 1": 0.75}, {"binder": "B2", "KD ratio 1": 3.8}, {"binder": "B3", "KD ratio 1": 0.37}]}]}
